We go through four molecules from publication PMC3441732, “Marburg Virus VP35 Can Both Fully Coat the Backbone and Cap the Ends of dsRNA for Interferon Antagonism”.

Data set [1] has as its target T1, MARV VP35 RBD (Marburg virus, UniProt P35259 205-329). Description: dual-filter dot blot; Hill 2.1±0.2; 10 mM Tris pH 8.0, 200 mM NaCl, 2 mM TCEP ([…], and ITC); temperature not stated. Conditions: protein: recombinant; tags: 6xHis (pET46b), TEV-cleaved; chain copies: 4; label: 5'-32P sense strand.
The target of data set [2] is T1, MARV VP35 RBD. As to the kind of experiment: X-ray crystal structure; 10 mM Tris pH 8.0, 200 mM NaCl, 2 mM TCEP ([…], and ITC); temperature not stated. To be noted: protein: recombinant; tags: 6xHis (pET46b), TEV-cleaved; chain copies: 4.
For data set [3], the target named is T1, MARV VP35 RBD. As to the kind of experiment: ITC; 10 mM Tris pH 8.0, 200 mM NaCl, 2 mM TCEP ([…], and ITC); temperature not stated. Conditions: protein: recombinant, tags: 6xHis (pET46b), TEV-cleaved, chain copies: 4, label: 5'-32P sense strand (dot blot), none in ITC.
Data set [4] concerns the target T1, MARV VP35 RBD. Description: dual-filter dot blot; Hill 3.5±0.3; 10 mM Tris pH 8.0, 200 mM NaCl, 2 mM TCEP ([…], and ITC); temperature not stated. Conditions: protein: recombinant; tags: 6xHis (pET46b), TEV-cleaved; chain copies: 4; label: 5'-32P sense strand (dot blot); none in ITC; blunt.
Data set [5] deals with T2, RESTV VP35 RBD (Reston virus (RESTV), UniProt Q8JPY0 205-329).
T2 sequence: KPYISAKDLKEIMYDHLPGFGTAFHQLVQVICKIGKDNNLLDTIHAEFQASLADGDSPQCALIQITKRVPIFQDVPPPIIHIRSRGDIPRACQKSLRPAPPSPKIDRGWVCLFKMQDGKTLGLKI
As to the kind of experiment: dual-filter dot blot; Hill 2.6±0.2; 10 mM Tris pH 8.0, 200 mM NaCl, 2 mM TCEP ([…], and ITC); temperature not stated. To be noted: protein: recombinant; tags: 6xHis, cleaved; chain copies: 2; label: 5'-32P sense strand (dot blot); none in ITC; blunt.

For data set [6], the target named is T3, EBOV VP35 RBD (Ebola virus, UniProt Q05127 216-340). Description: dual-filter dot blot; Hill 2.9±0.3; 10 mM Tris pH 8.0, 200 mM NaCl, 2 mM TCEP ([…], and ITC); temperature not stated. Conditions: protein: recombinant; tags: 6xHis, cleaved; label: 5'-32P sense strand (dot blot); none in ITC; blunt.
In data set [7] the target is T2, RESTV VP35 RBD. As to the kind of experiment: dual-filter dot blot; Hill 3.4±0.4; 10 mM Tris pH 8.0, 200 mM NaCl, 2 mM TCEP ([…], and ITC); temperature not stated. To be noted: protein: recombinant; tags: 6xHis, cleaved; chain copies: 2; label: 5'-32P sense strand (dot blot); none in ITC.
Data set [8] concerns the target T1, MARV VP35 RBD. As to the kind of experiment: dual-filter dot blot; Hill 3.1±0.2; 10 mM Tris pH 8.0, 200 mM NaCl, 2 mM TCEP ([…], and ITC); temperature not stated. To be noted: protein: recombinant; tags: 6xHis (pET46b), TEV-cleaved; chain copies: 4; label: 5'-32P sense strand (dot blot); none in ITC.
In data set [9] the target is T3, EBOV VP35 RBD. As to the kind of experiment: dual-filter dot blot; Hill 3.6±0.4; 10 mM Tris pH 8.0, 200 mM NaCl, 2 mM TCEP ([…], and ITC); temperature not stated. Conditions: protein: recombinant; tags: 6xHis, cleaved; label: 5'-32P sense strand (dot blot); none in ITC.

T1 sequence (P35259 205-329): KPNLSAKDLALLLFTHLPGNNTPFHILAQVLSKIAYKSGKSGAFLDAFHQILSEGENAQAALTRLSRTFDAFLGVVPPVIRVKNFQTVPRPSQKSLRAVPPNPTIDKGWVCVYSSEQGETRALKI
T3 sequence (Q05127 216-340): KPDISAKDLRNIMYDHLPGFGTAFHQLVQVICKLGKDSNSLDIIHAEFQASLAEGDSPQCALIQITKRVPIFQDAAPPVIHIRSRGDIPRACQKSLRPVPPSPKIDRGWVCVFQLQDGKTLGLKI

B1: 18-bp dsRNA with 5' overhang (dsRNA)
RNA 1: GAGAGAAGGAGGGAGGGAGGA
RNA 2: UCCUCCCUCCCUCCUUCUCUC
Consider B1, for which, in the data set with MARV VP35 RBD [1], the equilibrium dissociation constant (Kd) was found to be 4.4 ± 0.3 µM.

B2: 12-bp palindromic dsRNA (crystal) (dsRNA)
RNA 1: CUAGACGUCUAG
RNA 2: CUAGACGUCUAG
Consider B2, for which the binding result with MARV VP35 RBD [2] was “binds”.

B3: 18-bp blunt-ended dsRNA (dsRNA)
RNA 1: AGAAGGAGGGAGGGAGGA
RNA 2: UCCUCCCUCCCUCCUUCU
Regarding B3, the dissociation constant (Kd) with MARV VP35 RBD [3] (blunt) came to 28.6 ± 16.5 µM; with MARV VP35 RBD [4], 8.4 ± 0.2 µM; with RESTV VP35 RBD [5], 2.5 ± 0.1 µM; with EBOV VP35 RBD [6], 1.9 ± 0.1 µM.

B4: 18-bp dsRNA with 3' overhang (dsRNA)
RNA 1: AGAAGGAGGGAGGGAGGAGAG
RNA 2: CUCUCCUCCCUCCCUCCUUCU
For the molecule B4, the dissociation constant (Kd) is 3.4 µM with MARV VP35 RBD [3], 6 ± 0.2 µM with RESTV VP35 RBD [7], 9.3 ± 0.2 µM with MARV VP35 RBD [8] and 17.1 ± 0.7 µM in the data set with EBOV VP35 RBD [9].
